Results taken from paper PMC7680125.

Tested on: Isw1 alone (Saccharomyces cerevisiae)
Test: EMSA
Details: 35 mM Na-HEPES pH 7.8, 5 mM MgCl2, 0.1 mM EGTA, 0.02 M EDTA (so in the source), 70 mM NaCl, 0.1 mg/ml BSA, 5-8% glycerol, 40 uM 2-mercaptoethanol, 30 C, 30 min …

0N70 mononucleosome
Kd: 21.9 nM
